Values belong to the binder of their own block, whether it stands above or below them.
Biological target: T1, Akt (protein kinase B), Akt1 (mouse (endogenous in Neuro 2A), UniProt P31750 1-480)
T1 construct: Akt1, mouse, endogenous in Neuro 2A cells, captured by a rabbit anti-Akt antibody; MS peptide assigned to Akt1 (gi/6753034); Bait of all co-IPs; The anti-Akt antibody may also capture other Akt isoforms; Cells were unstimulated or IGF-1 stimulated (phospho-T308 as the mark of active Akt); source: endogenous, Neuro 2A lysate
T1 sequence (P31750 whole entry, canonical isoform): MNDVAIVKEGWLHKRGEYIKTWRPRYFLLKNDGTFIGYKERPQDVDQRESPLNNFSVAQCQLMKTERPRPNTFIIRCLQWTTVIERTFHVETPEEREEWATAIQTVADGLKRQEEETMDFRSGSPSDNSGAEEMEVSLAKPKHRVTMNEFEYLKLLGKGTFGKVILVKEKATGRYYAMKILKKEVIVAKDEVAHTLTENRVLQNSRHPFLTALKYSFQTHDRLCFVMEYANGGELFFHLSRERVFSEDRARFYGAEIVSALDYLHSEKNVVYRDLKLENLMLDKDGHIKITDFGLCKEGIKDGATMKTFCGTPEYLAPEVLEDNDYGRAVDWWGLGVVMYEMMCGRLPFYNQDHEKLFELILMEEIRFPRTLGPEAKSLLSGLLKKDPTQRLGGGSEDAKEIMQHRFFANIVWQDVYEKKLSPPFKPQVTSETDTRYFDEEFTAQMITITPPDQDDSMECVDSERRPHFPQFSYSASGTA
Assay: co-IP; two-step crosslinking co-IP (DSS-fixed anti-Akt antibody, DSP-crosslinking of the bound complexes) from Neuro 2A lysate, western blot; cells with or without IGF-1 (10 ng/mL, 10 min); band intensity normalized to Akt level
Details: partners not purified

B1: ErbB3 binding protein 1 (EBP1, also called proliferation-associated protein 2G4) (natural protein, mouse (endogenous in Neuro 2A), UniProt P50580 1-394, looked up)
chain: MSGEDEQQEQTIAEDLVVTKYKMGGDIANRVLRSLVEASSSGVSVLSLCEKGDAMIMEETGKIFKKEKEMKKGIAFPTSISVNNCVCHFSPLKSDQDYILKEGDLVKIDLGVHVDGFIANVAHTFVIGVAQGTQVTGRKADVIKAAHLCAEAALRLVKPGNQNTQVTEAWNKVAHSFNCTPIEGMLSHQLKQHVIDGEKTIIQNPTDQQKKDHEKAEFEVHEVYAVDVLVSSGEGKAKDAGQRTTIYKRDPSKQYGLKMKTSRAFFSEVERRFDAMPFTLRAFEDEKKARMGVVECAKHELLQPFNVLYEKEGEFVAQFKFTVLLMPNGPMRITSGPFEPDLYKSEMEVQDAELKALLQSSASRKTQKKKKKKASKTVENATSGETLEENGAGD
notes: EBP1 (proliferation-associated protein 2G4), mouse, endogenous; gi 116283229, 42 kDa; source: endogenous, Neuro 2A lysate
fold increase of association, IGF-stimulated (active Akt) against unstimulated, normalized to Akt level: 2.4 fold

B3: extracellular regulated kinase-1 and -2 (ERK1/2) (natural protein, mouse (endogenous in Neuro 2A), UniProt P63085 1-358, looked up)
chain: MAAAAAAGPEMVRGQVFDVGPRYTNLSYIGEGAYGMVCSAYDNLNKVRVAIKKISPFEHQTYCQRTLREIKILLRFRHENIIGINDIIRAPTIEQMKDVYIVQDLMETDLYKLLKTQHLSNDHICYFLYQILRGLKYIHSANVLHRDLKPSNLLLNTTCDLKICDFGLARVADPDHDHTGFLTEYVATRWYRAPEIMLNSKGYTKSIDIWSVGCILAEMLSNRPIFPGKHYLDQLNHILGILGSPSQEDLNCIINLKARNYLLSLPHKNKVPWNRLFPNADSKALDLLDKMLTFNPHKRIEVEQALAHPYLEQYYDPSDEPIAEAPFKFDMELDDLPKEKLKELIFEETARFQPGYRS
notes: ERK1/2, mouse, endogenous; the MS entry is a single 42 kDa protein; source: endogenous, Neuro 2A lysate
fold change of association, IGF-stimulated against unstimulated, normalized to Akt level: 0.98 fold
fold increase of co-precipitated ERK1/2 with DSP-crosslinking against without, normalized to Akt level: 2.5 ± 0.2 fold

Further lines, results first:

fold change of association, IGF-stimulated against unstimulated, normalized to Akt level: 0.97 ± 0.1 fold
B2: nuclear distribution gene C (Nudc, also named nuclear migration gene C) (natural protein)
chain: not shown
notes: nuclear migration protein nudC, mouse, endogenous; gi 6754910, 38 kDa; source: endogenous, Neuro 2A lysate

fold increase of association, IGF-stimulated (active Akt) against unstimulated, normalized to Akt level: 1.8 fold
B4: glycogen synthase kinase (GSK)-3β (enzyme, mouse (endogenous in Neuro 2A), UniProt Q9WV60 1-420, looked up)
chain: MSGRPRTTSFAESCKPVQQPSAFGSMKVSRDKDGSKVTTVVATPGQGPDRPQEVSYTDTKVIGNGSFGVVYQAKLCDSGELVAIKKVLQDKRFKNRELQIMRKLDHCNIVRLRYFFYSSGEKKDEVYLNLVLDYVPETVYRVARHYSRAKQTLPVIYVKLYMYQLFRSLAYIHSFGICHRDIKPQNLLLDPDTAVLKLCDFGSAKQLVRGEPNVSYICSRYYRAPELIFGATDYTSSIDVWSAGCVLAELLLGQPIFPGDSGVDQLVEIIKVLGTPTREQIREMNPNYTEFKFPQIKAHPWTKVFRPRTPPEAIALCSRLLEYTPTARLTPLEACAHSFFDELRDPNVKLPNGRDTPALFNFTTQELSSNPPLATILIPPHARIQAAASPPANATAASDTNAGDRGQTNNAASASASNST
notes: glycogen synthase kinase-3 beta, mouse, endogenous; gi 9790077, 47 kDa; source: endogenous, Neuro 2A lysate

From paper PMC3629208, “Effective Identification of Akt Interacting Proteins by Two-Step Chemical Crosslinking, Co-Immunoprecipitation and Mass Spectrometry” (PLoS ONE, 2013)
